This is an account of results in patent US6218168A, “Process for preparing O-acetylserine, L-cysteine and L-cysteine-related products” (Consortium fur elektrochemische Inudstrie GmbH, priority 1995, dated 2001).

This assay concerns serine acetyltransferase. The assay can be described thus: Serine acetyltransferase enzyme activity test with and without L-cysteine (inhibitor constant Ki, specific activity). Format: biochemical, E. coli. The note with it: for Ki: inhibitor L-cysteine. From the text:
Any method which enables the activity of the serine acetyltransferase to be determined in the presence of cysteine can be used for determining the cysteine sensitivity of this enzyme. For example, the serine acetyltransferase activity can be determined using the method described by Kredich and Tomkins, J. Biol. Chem. 241: 4955-4965 (1966). In this test, the enzyme test mixture contains the substrate, L-serine, and the cofactor, acetyl-coenzyme A. The reaction is started by adding enzyme and monitored, in a spectro photometer, by observing the decrease in absorption at 232 nm which is elicited by the cleavage of the thioester bond in the acetyl-coenzyme A.
The above-described enzyme test is suitable for determining the cysteine sensitivity of any serine acetyltransferase enzyme, including the enzymes which have a modified carboxyl terminus. Inhibition of the serine acetyltransferase activity is tested in the presence of differing concentrations of L-cysteine in the reaction mixture. The catalytic activity of the different serine acetyltransferase enzymes is determined in the presence and absence of L-cysteine, and the inhibitor constant, Ki, is ascertained from this (Kredich and Tomkins, J. Biol. Chem., 241, 4955-4965 (1966)).
In order to investigate the biochemical basis of the cysteine secretion of the revertants, the activity of the serine acetyltransferase was determined in vitro, and the ability of cysteine to inhibit the enzyme was measured. For the determination, use was made of S30 extracts (cell homogenates centrifuged at 30,000 g and 4° C. for 20 minutes) of the selected revertants, the starting strains and the comparison strain, E. coli W3110 (ATTC 27325).
The biochemical parameters such as enzyme activity and inhibitor constant, Ki, were determined in an analogous manner to that described in Example 1.
The plasmids resulting from this cloning were designated pACYC184/cysE-Del in accordance with the extent of their deletion (cf. FIG. 9 for the plasmid map). Determination of the enzymic activity and the inhibitor constant, Ki, and also the cross-feeding test, were carried out in analogy with the description in Example 1. DNA sequence analysis was used to confirm that the deletions had been correctly introduced.
Determination of the enzymic activity and of the inhibitor constant Ki, and also the cross-feeding test, were carried out in analogy with the description in Example 1.

Where [1] appears, read: Table 1b, carboxyterminal deletions.
Setting [2] is: Table 6, carboxyterminal deletions.
The mark [3] stands for this setting: Table 1a, 1 mM L-serine, 0.1 mM acetyl-CoA.
[4] abbreviates: Table 1a, serine acetyltransferase activity.
Setting [5] is: Table 2, alleles from chemical mutagenesis.

B1: cysE-Del249: carboxyterminal deletion of 24 amino acids, terminal Ser249 (protein, UniProt P0A9D4 1-249, looked up, fragment)
chain: MSCEELEIVWNNIKAEARTLADCEPMLASFYHATLLKHENLGSALSYMLANKLSSPIMPAIAIREVVEEAYAADPEMIASAACDIQAVRTRDPAVDKYSTPLLYLKGFHALQAYRIGHWLWNQGRRALAIFLQNQVSVTFQVDIHPAAKIGRGIMLDHATGIVVGETAVIENDVSILQSVTLGGTGKSGGDRHPKIREGVMIGAGAKILGNIEVGRGAKIGAGSVVLQPVPPHTTAAGVPARIVGKPDS
Under setting [1], B1 yielded a spec. act. of 0.420 μmol/min x mg and a Ki of 15 µM. Under setting [2], this molecule gave an inhibition constant (Ki) of 15 µM.

B2: cysE-Del257: carboxyterminal deletion of 16 amino acids, terminal Asp257 (protein, UniProt P0A9D4 1-257, looked up, fragment)
chain: MSCEELEIVWNNIKAEARTLADCEPMLASFYHATLLKHENLGSALSYMLANKLSSPIMPAIAIREVVEEAYAADPEMIASAACDIQAVRTRDPAVDKYSTPLLYLKGFHALQAYRIGHWLWNQGRRALAIFLQNQVSVTFQVDIHPAAKIGRGIMLDHATGIVVGETAVIENDVSILQSVTLGGTGKSGGDRHPKIREGVMIGAGAKILGNIEVGRGAKIGAGSVVLQPVPPHTTAAGVPARIVGKPDSDKPSMDMD
Under setting [1], B2 yielded a spec. act. of 0.394 μmol/min x mg and an inhibitory constant (Ki) of 7.5 µM. Further, under setting [2], affinity was put at a Ki of 7.5 µM.

B3: cysE-Del250: carboxyterminal deletion of 23 amino acids, terminal Asp250 (protein, UniProt P0A9D4 1-250, looked up, fragment)
chain: MSCEELEIVWNNIKAEARTLADCEPMLASFYHATLLKHENLGSALSYMLANKLSSPIMPAIAIREVVEEAYAADPEMIASAACDIQAVRTRDPAVDKYSTPLLYLKGFHALQAYRIGHWLWNQGRRALAIFLQNQVSVTFQVDIHPAAKIGRGIMLDHATGIVVGETAVIENDVSILQSVTLGGTGKSGGDRHPKIREGVMIGAGAKILGNIEVGRGAKIGAGSVVLQPVPPHTTAAGVPARIVGKPDSD
B3: under setting [1], the spec. act. worked out at 0.405 μmol/min x mg and the affinity corresponds to a Ki of 20 µM. The Ki under setting [2] is 20 µM.

B4: cysE-Del248: carboxyterminal deletion of 25 amino acids, terminal Asp248 (protein, UniProt P0A9D4 1-248, looked up, fragment)
chain: MSCEELEIVWNNIKAEARTLADCEPMLASFYHATLLKHENLGSALSYMLANKLSSPIMPAIAIREVVEEAYAADPEMIASAACDIQAVRTRDPAVDKYSTPLLYLKGFHALQAYRIGHWLWNQGRRALAIFLQNQVSVTFQVDIHPAAKIGRGIMLDHATGIVVGETAVIENDVSILQSVTLGGTGKSGGDRHPKIREGVMIGAGAKILGNIEVGRGAKIGAGSVVLQPVPPHTTAAGVPARIVGKPD
Molecule B4 registered a spec. act. under setting [1] of 0.270 μmol/min x mg. Moreover, the Ki under setting [1] came to 12.5 µM and the affinity under setting [2] corresponds to a Ki of 12.5 µM.

B5: cysE-Del258: carboxyterminal deletion of 15 amino acids, terminal Gln258 (protein, UniProt P0A9D4 1-258, looked up, fragment)
chain: MSCEELEIVWNNIKAEARTLADCEPMLASFYHATLLKHENLGSALSYMLANKLSSPIMPAIAIREVVEEAYAADPEMIASAACDIQAVRTRDPAVDKYSTPLLYLKGFHALQAYRIGHWLWNQGRRALAIFLQNQVSVTFQVDIHPAAKIGRGIMLDHATGIVVGETAVIENDVSILQSVTLGGTGKSGGDRHPKIREGVMIGAGAKILGNIEVGRGAKIGAGSVVLQPVPPHTTAAGVPARIVGKPDSDKPSMDMDQ
Under setting [1], B5 returned a spec. act. of 0.256 μmol/min x mg and a Ki of 5 µM. Further, affinity under setting [2] was put at a Ki of 5 µM.

B6: cysEII: feedback-resistant serine acetyltransferase allele, Gly238->Ser238 (protein, UniProt P0A9D4 1-273, looked up, variant G238S)
Serine acetyltransferase: MSCEELEIVWNNIKAEARTLADCEPMLASFYHATLLKHENLGSALSYMLANKLSSPIMPAIAIREVVEEAYAADPEMIASAACDIQAVRTRDPAVDKYSTPLLYLKGFHALQAYRIGHWLWNQGRRALAIFLQNQVSVTFQVDIHPAAKIGRGIMLDHATGIVVGETAVIENDVSILQSVTLGGTGKSGGDRHPKIREGVMIGAGAKILGNIEVGRGAKIGAGSVVLQPVPPHTTAASVPARIVGKPDSDKPSMDMDQHFNGINHTFEYGDGI
Take B6: the Ki by setting is: under setting [3], 10 µM; under setting [5], 10 µM. Under setting [4], the spec. act. was 0.068 µmol/min/mg.

B7: cysEIII: feedback-resistant serine acetyltransferase allele, Gly165->Asp165 (protein, UniProt P0A9D4 1-273, looked up, variant G165D)
Serine acetyltransferase: MSCEELEIVWNNIKAEARTLADCEPMLASFYHATLLKHENLGSALSYMLANKLSSPIMPAIAIREVVEEAYAADPEMIASAACDIQAVRTRDPAVDKYSTPLLYLKGFHALQAYRIGHWLWNQGRRALAIFLQNQVSVTFQVDIHPAAKIGRGIMLDHATGIVVDETAVIENDVSILQSVTLGGTGKSGGDRHPKIREGVMIGAGAKILGNIEVGRGAKIGAGSVVLQPVPPHTTAAGVPARIVGKPDSDKPSMDMDQHFNGINHTFEYGDGI
In the case of B7, the Ki is, setting by setting: under setting [3], 10 µM; under setting [5], 10 µM. Besides, the spec. act. under setting [4] turned out to be 0.030 µmol/min/mg.

B8: cysE-Del259: carboxyterminal deletion of 14 amino acids, terminal His259 (protein, UniProt P0A9D4 1-259, looked up, fragment)
chain: MSCEELEIVWNNIKAEARTLADCEPMLASFYHATLLKHENLGSALSYMLANKLSSPIMPAIAIREVVEEAYAADPEMIASAACDIQAVRTRDPAVDKYSTPLLYLKGFHALQAYRIGHWLWNQGRRALAIFLQNQVSVTFQVDIHPAAKIGRGIMLDHATGIVVGETAVIENDVSILQSVTLGGTGKSGGDRHPKIREGVMIGAGAKILGNIEVGRGAKIGAGSVVLQPVPPHTTAAGVPARIVGKPDSDKPSMDMDQH
Regarding B8, under setting [1], the spec. act. was determined as 0.328 μmol/min x mg. Further, the Ki came out at 7.5 µM under setting [1] and 7.5 µM under setting [2].

B9: cysE-Del256: carboxyterminal deletion of 17 amino acids, terminal Met256 (protein, UniProt P0A9D4 1-256, looked up, fragment)
chain: MSCEELEIVWNNIKAEARTLADCEPMLASFYHATLLKHENLGSALSYMLANKLSSPIMPAIAIREVVEEAYAADPEMIASAACDIQAVRTRDPAVDKYSTPLLYLKGFHALQAYRIGHWLWNQGRRALAIFLQNQVSVTFQVDIHPAAKIGRGIMLDHATGIVVGETAVIENDVSILQSVTLGGTGKSGGDRHPKIREGVMIGAGAKILGNIEVGRGAKIGAGSVVLQPVPPHTTAAGVPARIVGKPDSDKPSMDM
B9 had a spec. act. under setting [1] of 0.366 μmol/min x mg. In addition, the Ki stood at 12.5 µM under setting [1] and 12.5 µM under setting [2].
